From US20240102052A1 (VNV NEWCO, published 2024) come the findings set out here.

First the molecules themselves.
B1: PNMA2 C136S mutant (other)
chain: MALALLEDWCRIMSVDEQKSLMVTGIPADFEEAEIQEVLQETLKSLGRYRLLGKIFRKQENANAVLLELLEDTDVSAIPSEVQGKGGVWKVIFKTPNQDTEFLERLNLFLEKEGQTVSGMFRALGQEGVSPATVPSISPELLAHLLGQAMAHAPQPLLPMRYRKLRVFSGSAVPAPEEESFEVWLEQATEIVKEWPVTEAEKKRWLAESLRGPALDLMHIVQADNPSISVEECLEAFKQVFGSLESRRTAQVRYLKTYQEEGEKVSAYVLRLETLLRRAVEKRAIPRRIADQVRLEQVMAGATLNQMLWCRLRELKDQGPPPSFLELMKVIREEEEEEASFENESIEEPEERDGYGRWNHEGDD
B2: wild type PNMA2 (other)
chain: B1 chain with S136C
notes: Self-associating capsid subunit
B3: PNMA2 C233S mutant (other)
chain: B1 chain with S136C, C233S
B4: PNMA2 C310S mutant (other)
chain: B1 chain with S136C, C310S
B5: PNMA2 C10S mutant (other)
chain: B1 chain with C10S, S136C

Where a chain is given by its changes, count along the chain named. In names and notes the source's numbering stands.

This data set deals with the molecule itself. Put plainly: SDS-PAGE and western blot, self-association.
B1: the binding result is on record as “binds”.

For B2, the binding result is recorded as “binds”.

For B3, the binding result was “binds”.

In the case of B4, the binding result was “binds”.

In the case of B5, the binding result is “binds”.
